{"source": "paper PMC2837607", "about": "“Orthophosphate binding at the dimer interface of Corynebacterium callunae starch phosphorylase: mutational analysis of its role for activity and stability of the enzyme” (BMC Biochemistry, 2010)", "key": {"[1]": {"target": "T1, Corynebacterium callunae starch phosphorylase (CcGlgP) (Corynebacterium callunae, UniProt Q8KQ56)", "T1 sequence (Q8KQ56 entry or part of it)": "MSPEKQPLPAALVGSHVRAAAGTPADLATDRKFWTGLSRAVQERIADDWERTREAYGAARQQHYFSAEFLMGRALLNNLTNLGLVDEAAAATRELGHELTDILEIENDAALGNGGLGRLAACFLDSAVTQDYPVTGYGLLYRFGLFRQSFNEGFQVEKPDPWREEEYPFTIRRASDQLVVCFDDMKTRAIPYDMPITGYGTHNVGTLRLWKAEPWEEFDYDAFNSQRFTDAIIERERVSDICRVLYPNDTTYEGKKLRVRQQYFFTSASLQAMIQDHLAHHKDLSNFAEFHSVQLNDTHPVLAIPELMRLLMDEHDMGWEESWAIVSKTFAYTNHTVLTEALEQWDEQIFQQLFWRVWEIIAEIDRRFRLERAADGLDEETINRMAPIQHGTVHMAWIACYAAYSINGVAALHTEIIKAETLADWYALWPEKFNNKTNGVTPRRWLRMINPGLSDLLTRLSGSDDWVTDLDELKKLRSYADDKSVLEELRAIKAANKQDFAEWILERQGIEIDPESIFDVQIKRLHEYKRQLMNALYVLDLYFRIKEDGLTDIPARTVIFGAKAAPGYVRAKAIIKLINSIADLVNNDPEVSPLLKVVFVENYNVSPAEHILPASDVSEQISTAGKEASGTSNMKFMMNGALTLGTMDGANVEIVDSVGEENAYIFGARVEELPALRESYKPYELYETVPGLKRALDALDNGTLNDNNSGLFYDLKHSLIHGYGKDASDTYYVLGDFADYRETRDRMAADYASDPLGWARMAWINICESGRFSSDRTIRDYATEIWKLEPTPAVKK", "conditions": "50 mM triethanolamine, pH 7.0; dimer-interface P- and CAP-sites, not the catalytic site; stabilisation against subunit dissociation"}, "[2]": {"target": "T2, Corynebacterium callunae starch phosphorylase (CcGlgP) (Corynebacterium callunae, UniProt Q8KQ56, S175A)", "T2 construct": "full-length, N-terminal RGSHHHHHHGSA tag kept, from pQE 30-GlgP in E. coli JM109; homodimer (small tetramer fraction caused by tag); PLP enzyme", "T2 sequence (Q8KQ56 entry or part of it S175A)": "as the sequence (Q8KQ56 entry or part of it) above, with S175A counted along it", "experiment": "colorimetric PLP quantitation of the isolated enzyme", "format": "binding", "conditions": "covalent (Schiff base with active-site Lys); as isolated", "from_the_text": "(§1) colorimetric PLP quantitation of the isolated enzyme on Corynebacterium callunae starch phosphorylase (CcGlgP)"}, "[3]": {"target": "T3, Corynebacterium callunae starch phosphorylase (CcGlgP) (Corynebacterium callunae, UniProt Q8KQ56, T29A)", "T3 construct": "full-length, N-terminal RGSHHHHHHGSA tag kept, from pQE 30-GlgP in E. coli JM109; homodimer (small tetramer fraction caused by tag); PLP enzyme", "T3 sequence (Q8KQ56 entry or part of it T29A)": "as the sequence (Q8KQ56 entry or part of it) above, with T29A counted along it", "experiment": "colorimetric PLP quantitation of the isolated enzyme", "format": "binding", "conditions": "covalent (Schiff base with active-site Lys); as isolated", "from_the_text": "as §1"}, "[4]": {"target": "T4, Corynebacterium callunae starch phosphorylase (CcGlgP) (Corynebacterium callunae, UniProt Q8KQ56, K32A)", "T4 construct": "full-length, N-terminal RGSHHHHHHGSA tag kept, from pQE 30-GlgP in E. coli JM109; homodimer (small tetramer fraction caused by tag); PLP enzyme", "T4 sequence (Q8KQ56 entry or part of it K32A)": "as the sequence (Q8KQ56 entry or part of it) above, with K32A counted along it", "experiment": "colorimetric PLP quantitation of the isolated enzyme", "format": "binding", "conditions": "covalent (Schiff base with active-site Lys); as isolated", "from_the_text": "as §1"}, "[5]": {"target": "T5, Corynebacterium callunae starch phosphorylase (CcGlgP) (Corynebacterium callunae, UniProt Q8KQ56, R142A)", "T5 construct": "full-length, N-terminal RGSHHHHHHGSA tag kept, from pQE 30-GlgP in E. coli JM109; homodimer (small tetramer fraction caused by tag); PLP enzyme", "T5 sequence (Q8KQ56 entry or part of it R142A)": "as the sequence (Q8KQ56 entry or part of it) above, with R142A counted along it", "experiment": "colorimetric PLP quantitation of the isolated enzyme", "format": "binding", "conditions": "covalent (Schiff base with active-site Lys); as isolated", "from_the_text": "as §1"}, "[6]": {"target": "T1, Corynebacterium callunae starch phosphorylase (CcGlgP)", "experiment": "colorimetric PLP quantitation of the isolated enzyme", "format": "binding", "parameters": "full-length, N-terminal RGSHHHHHHGSA tag kept, from pQE 30-GlgP in E. coli JM109; homodimer (small tetramer fraction caused by tag); PLP enzyme", "conditions": "covalent (Schiff base with active-site Lys); as isolated", "from_the_text": "as §1"}, "[7]": {"target": "T1, Corynebacterium callunae starch phosphorylase (CcGlgP)", "experiment": "initial rate of glucan synthesis, Pi release", "format": "biochemical", "parameters": "full-length, N-terminal RGSHHHHHHGSA tag kept, from pQE 30-GlgP in E. coli JM109; homodimer (small tetramer fraction caused by tag); PLP enzyme", "conditions": "50 mM G1P, 20 g/l starch, pH 7.0, 30 °C; apparent activation through dimer stabilisation, not allosteric"}, "[8]": {"target": "Corynebacterium callunae starch phosphorylase K31A (Corynebacterium callunae)"}, "[9]": {"target": "Corynebacterium callunae starch phosphorylase R141A (Corynebacterium callunae)"}, "[10]": {"target": "Corynebacterium callunae starch phosphorylase R141A (Corynebacterium callunae)", "experiment": "SEC; R141A as isolated, prior to imidazole, 0.4 mg/ml; HiLoad 16/60 Superdex 200 prep grade, 50 mM potassium phosphate buffer pH 7.0, 0.15 M NaCl, 1 ml/min; calibrated with Bio-Rad Gel Filtration Standard"}, "[11]": {"target": "Corynebacterium callunae starch phosphorylase S174A (Corynebacterium callunae)"}, "[12]": {"target": "Corynebacterium callunae starch phosphorylase S174A (Corynebacterium callunae)", "remark": "listed apart in the source"}, "[13]": {"target": "Corynebacterium callunae starch phosphorylase T28A (Corynebacterium callunae)"}, "[14]": {"target": "Corynebacterium callunae starch phosphorylase, wild-type (Corynebacterium callunae)"}, "[15]": {"target": "Corynebacterium callunae starch phosphorylase, wild-type (Corynebacterium callunae)", "remark": "listed apart in the source"}, "[16]": {"target": "Corynebacterium callunae starch phosphorylase, wild-type (Corynebacterium callunae)", "remark": "listed apart in the source"}}, "note": "Several values for one entry are separate records, joined by “and”; a condition that tells them apart may be missing. Equal values may be shown once."}
{"compound": "O=P(O)(O)O", "note": "[orthophosphate]", "values": [{"measurement": "inactivation at 45°C / 10.0 mM Pi", "setting": "[1]", "result": 280, "unit": "min"}]}
{"compound": "Cc1ncc(COP(=O)(O)O)c(C=O)c1O", "note": "[pyridoxal 5'-phosphate]", "values": [{"measurement": "PLP / [μM/μM protein]", "setting": "[2]", "result": 0.7, "unit": "μM/μM protein"}, {"measurement": "PLP / [μM/μM protein]", "setting": "[3]", "result": 0.6, "unit": "μM/μM protein"}, {"measurement": "PLP / [μM/μM protein]", "setting": "[4]", "result": 0.6, "unit": "μM/μM protein"}, {"measurement": "PLP / [μM/μM protein]", "setting": "[5]", "result": 0.7, "unit": "μM/μM protein"}, {"measurement": "PLP / [μM/μM protein]", "setting": "[6]", "result": 0.7, "unit": "μM/μM protein"}]}
{"compound": "O=S(=O)(O)O", "note": "[sulphate]", "values": [{"measurement": "maximum stimulation of Vs at around 10 mM sulphate", "setting": "[7]", "result": "~ 3 fold"}]}
{"compound": "Corynebacterium callunae starch phosphorylase K31A (enzyme)", "values": [{"measurement": "half-life time (t1/2) of enzyme activity at 45°C, pH 7.0; no Pi, 10.0 mM Pi, 100 mM Pi (5.3, 1.7 × 10^2, 3.5 × 10^3 min)", "setting": "[8]", "result": 3500, "unit": "min"}, {"measurement": "half-life time (t1/2) of enzyme activity in 0.4 M imidazole at 30°C; no Pi, 5.0 mM Pi (10, 25 min)", "setting": "[8]", "result": 25, "unit": "min"}]}
{"compound": "Corynebacterium callunae starch phosphorylase R141A (enzyme)", "values": [{"measurement": "half-life time (t1/2) of enzyme activity at 45°C, pH 7.0; no Pi, 10.0 mM Pi, 100 mM Pi (2.9, 7.5, 1.4 × 10^3 min)", "setting": "[9]", "result": 1400, "unit": "min"}, {"measurement": "half-life time (t1/2) of enzyme activity in 0.4 M imidazole at 30°C; no Pi, 5.0 mM Pi (6.4, 27 min)", "setting": "[9]", "result": 27, "unit": "min"}, {"measurement": "stoichiometry N", "setting": "[10]", "result": "2 and 4"}]}
{"compound": "Corynebacterium callunae starch phosphorylase S174A (enzyme)", "values": [{"measurement": "half-life time (t1/2) of enzyme activity at 45°C, pH 7.0; no Pi, 10.0 mM Pi, 100 mM Pi (2.8, 33, 9.9 × 10^2 min)", "setting": "[11]", "result": 990, "unit": "min"}, {"measurement": "half-life time (t1/2) of enzyme activity in 0.4 M imidazole at 30°C; no Pi, 5.0 mM Pi (14, 58 min)", "setting": "[11]", "result": 58, "unit": "min"}, {"measurement": "enhancement of Vs by 10 mM sulphate, 50 mM G1P; protein 2.5 nM (~5-fold) and 50 nM (1.7-fold)", "setting": "[12]", "result": 5, "unit": "fold"}]}
{"compound": "Corynebacterium callunae starch phosphorylase T28A (enzyme)", "values": [{"measurement": "half-life time (t1/2) of enzyme activity at 45°C, pH 7.0; no Pi, 10.0 mM Pi, 100 mM Pi (0.8, 2.2, 3.3 × 10^2 min)", "setting": "[13]", "result": 330, "unit": "min"}, {"measurement": "half-life time (t1/2) of enzyme activity in 0.4 M imidazole at 30°C; no Pi, 5.0 mM Pi (1.9, 5.6 min)", "setting": "[13]", "result": 5.6, "unit": "min"}]}
{"compound": "Corynebacterium callunae starch phosphorylase, wild-type (enzyme)", "values": [{"measurement": "half-life time (t1/2) of enzyme activity at 45°C, pH 7.0; no Pi, 10.0 mM Pi, 100 mM Pi (2.6, 2.8 × 10^2, 3.5 × 10^3 min)", "setting": "[14]", "result": 3500, "unit": "min"}, {"measurement": "half-life time (t1/2) of enzyme activity in 0.4 M imidazole at 30°C; no Pi, 5.0 mM Pi (22, 160 min)", "setting": "[14]", "result": 160, "unit": "min"}, {"measurement": "apparent activation of Vs by 10 mM sulphate at 2.5 nM protein, 50 mM G1P", "setting": "[15]", "result": 2.4, "unit": "fold"}, {"measurement": "stimulation of the initial rate of glucan synthesis (Vs) by sulphate (5.0 - 40 mM (NH4)2SO4), 50 mM G1P, relative to the control lacking sulphate; maximum at around 10 mM sulphate", "setting": "[16]", "result": 3, "unit": "fold"}]}
